Measurements as given in publication PMC6003988, “VRK1 and AURKB form a complex that cross inhibit their kinase activity and the phosphorylation of histone H3 in the progression of mitosis” (Cellular and Molecular Life Sciences: CMLS, 2018).

Molecular target: T1, V5–AURKB, expressed in HEK293T cells (UniProt Q96GD4 1-344)
T1 construct: Aurora kinase B (AURKB), wild type; plasmid pDEST3.1_nV5-AurkB provided by Malumbres [65]; also called Aurora B; Aurora kinase B; source: HEK293T, transfected, in lysate
Test: co-IP; immunoprecipitation of V5-AURKB from extracts of HEK293T cells co-transfected with GST-VRK1 or HA-VRK1, WT or kinase-dead; VRK1 detected by immunoblot, quantified
Conditions: partners not purified

T1 sequence (Q96GD4 whole entry): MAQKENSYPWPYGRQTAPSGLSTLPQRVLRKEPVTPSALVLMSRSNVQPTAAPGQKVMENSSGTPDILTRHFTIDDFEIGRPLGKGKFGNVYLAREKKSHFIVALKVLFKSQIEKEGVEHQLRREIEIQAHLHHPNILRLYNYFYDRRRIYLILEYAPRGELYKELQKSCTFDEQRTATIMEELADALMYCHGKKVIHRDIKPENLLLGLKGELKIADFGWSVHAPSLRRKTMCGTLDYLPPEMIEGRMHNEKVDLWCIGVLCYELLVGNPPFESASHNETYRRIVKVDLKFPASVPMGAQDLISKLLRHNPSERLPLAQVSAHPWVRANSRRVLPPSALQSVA

B1: HA–VRK1–K179E, kinase-dead, expressed in HEK293T cells (enzyme, human, UniProt Q99986 1-396, looked up)
chain: MPRVKAAQAGRQSSAKRHLAEQFAVGEIITDMAKKEWKVGLPIGQGGFGCIYLADMNSSESVGSDAPCVVKVEPSDNGPLFTELKFYQRAAKPEQIQKWIRTRKLKYLGVPKYWGSGLHDKNGKSYRFMIMDRFGSDLQKIYEANAKRFSRKTVLQLSLRILDILEYIHEHEYVHGDIEASNLLLNYKNPDQVYLVDYGLAYRYCPEGVHKEYKEDPKRCHDGTIEFTSIDAHNGVAPSRRGDLEILGYCMIQWLTGHLPWEDNLKDPKYVRDSKIRYRENIASLMDKCFPEKNKPGEIAKYMETVKLLDYTEKPLYENLRDILLQGLKAIGSKDDGKLDLSVVENGGLKAKTITKKRKKEIEESKEPGVEDTEWSNTQTEEAIQTRSRTRKRVQK
notes: Vaccinia-related kinase 1 (VRK1), kinase-dead mutant K179E; plasmid pCEFL-HA-VRK1-K179E; also called HA–VRK1–KD; pCEFL–HA–VRK1–K179E; source: HEK293T, transfected, in lysate
fold binding against active VRK1: ~3 fold

B2: GST–VRK1 (K179E), kinase inactive, expressed in HEK293T cells (enzyme, human, UniProt Q99986 1-396, looked up)
chain: MPRVKAAQAGRQSSAKRHLAEQFAVGEIITDMAKKEWKVGLPIGQGGFGCIYLADMNSSESVGSDAPCVVKVEPSDNGPLFTELKFYQRAAKPEQIQKWIRTRKLKYLGVPKYWGSGLHDKNGKSYRFMIMDRFGSDLQKIYEANAKRFSRKTVLQLSLRILDILEYIHEHEYVHGDIEASNLLLNYKNPDQVYLVDYGLAYRYCPEGVHKEYKEDPKRCHDGTIEFTSIDAHNGVAPSRRGDLEILGYCMIQWLTGHLPWEDNLKDPKYVRDSKIRYRENIASLMDKCFPEKNKPGEIAKYMETVKLLDYTEKPLYENLRDILLQGLKAIGSKDDGKLDLSVVENGGLKAKTITKKRKKEIEESKEPGVEDTEWSNTQTEEAIQTRSRTRKRVQK
notes: Vaccinia-related kinase 1 (VRK1), kinase-dead mutant K179E; also called GST-VRK1 KD; kinase-dead VRK1 (K179E); source: HEK293T, transfected, in lysate
fold binding against active VRK1: ~3 fold
